Assay results as given in patent US20210095002A1 (Hoffmann-La Roche, published 2021).

Assays:
[1] = molecular target: T1, biotinylated murine 4-1BB Fc(kih) (murine, UniProt P20334 24-187, biotinylated); assay: SPR (Biacore T200, 25 C): biotinylated murine 4-1BB Fc(kih) on SA chip, construct at 200 nM as first analyte, murine FAP at 500 nM as second analyte
T1 construct: also called immobilized murine 4-1BB
T1 sequence: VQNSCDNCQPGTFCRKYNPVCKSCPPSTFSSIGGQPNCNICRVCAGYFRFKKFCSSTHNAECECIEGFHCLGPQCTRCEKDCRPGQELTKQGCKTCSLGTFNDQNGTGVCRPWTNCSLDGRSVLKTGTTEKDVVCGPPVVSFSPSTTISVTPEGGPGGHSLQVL

[2] = molecular target: T2, murine FAP (mouse, UniProt P97321 27-761); assay: SPR simultaneous binding, figure legend (FIG. 2C)
T2 construct: also called mouse FAP
T2 sequence (P97321 27-761 limits assumed): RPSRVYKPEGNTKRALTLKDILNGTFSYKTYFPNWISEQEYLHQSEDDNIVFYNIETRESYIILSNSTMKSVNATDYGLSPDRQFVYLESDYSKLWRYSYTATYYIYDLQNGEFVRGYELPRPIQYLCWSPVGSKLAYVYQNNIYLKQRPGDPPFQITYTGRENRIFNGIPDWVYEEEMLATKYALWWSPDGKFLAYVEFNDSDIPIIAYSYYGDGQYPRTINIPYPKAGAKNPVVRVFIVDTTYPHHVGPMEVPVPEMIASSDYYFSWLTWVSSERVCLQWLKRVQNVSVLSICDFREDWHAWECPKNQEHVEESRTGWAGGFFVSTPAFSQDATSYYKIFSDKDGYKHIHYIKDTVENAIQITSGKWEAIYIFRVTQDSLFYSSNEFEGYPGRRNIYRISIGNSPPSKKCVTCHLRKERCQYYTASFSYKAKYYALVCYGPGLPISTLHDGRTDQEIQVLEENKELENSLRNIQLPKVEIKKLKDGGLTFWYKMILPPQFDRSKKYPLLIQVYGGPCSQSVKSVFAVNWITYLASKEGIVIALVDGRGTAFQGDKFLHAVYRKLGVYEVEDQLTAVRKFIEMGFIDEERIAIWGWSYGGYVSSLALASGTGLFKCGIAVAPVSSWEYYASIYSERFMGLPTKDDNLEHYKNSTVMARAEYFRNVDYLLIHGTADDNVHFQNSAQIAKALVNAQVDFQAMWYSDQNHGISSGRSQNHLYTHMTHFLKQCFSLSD
Protocol: The capacity of binding simultaneously murine 4-1BB Fc(kih) and murine FAP was assessed by surface plasmon resonance (SPR) in the manner as described in WO 2016/075278 A1. All SPR experiments were performed on a Biacore T200 at 25° C. with HBS-EP as running buffer (0.01 M HEPES pH 7.4, 0.15 M NaCl, 3 mM EDTA, 0.005% Surfactant P20, Biacore, Freiburg/Germany). Biotinylated murine 4-1BB Fc(kih) was directly coupled to a flow cell of a streptavidin (SA) sensor chip. Immobilization levels up to 600 resonance units (RU) were used.
The FAP-targeted 4-1BB constructs were passed at a concentration range of 200 nM with a flow of 30 μL/minute through the flow cells over 90 seconds and dissociation was set to zero sec. Murine FAP was injected as second analyte with a flow of 30 μL/minute through the flow cells over 90 seconds at a concentration of 500 nM. The dissociation was monitored for 120 sec. Bulk refractive index differences were corrected for by subtracting the response obtained in a reference flow cell, where no protein was immobilized.

binding result [1]: binds
binding result [2]: binds
B1: 4-1BB (MU137-1)/FAP(28H1) DAPG IgG1 2+1 (Fc-DD-VL), named muFAP-4-1BB (bispecific antibody)
heavy 1: DVQLVESGGGLVQPGRSLKLSCAASGFIFSYFDMAWVRQAPTKGLEWVASISPSGDIPYYRDSVKGRFTVSRENAKSSLYLQMDSLRSEDTATYYCARRSYGGYSELDYWGQGVMVTVSSAKTTPPSVYPLAPGSAAQTNSMVTLGCLVKGYFPEPVTVTWNSGSLSSGVHTFPAVLQSDLYTLSSSVTVPSSTWPSQTVTCNVAHPASSTKVDKKIVPRDCGCKPCICTVPEVSSVFIFPPKPKDVLTITLTPKVTCVVVAISKDDPEVQFSWFVDDVEVHTAQTKPREEQINSTFRSVSELPIMHQDWLNGKEFKCRVNSAAFGAPIEKTISKTKGRPKAPQVYTIPPPKEQMAKDKVSLTCMITNFFPEDITVEWQWNGQPAENYDNTQPIMDTDGSYFVYSDLNVQKSNWEAGNTFTCSVLHEGLHNHHTEKSLSHSPGGGGGSGGGGSGGGGSGGGGSEIVLTQSPGTLSLSPGERATLSCRASQSVSRSYLAWYQQKPGQAPRLLIIGASTRATGIPDRFSGSGSGTDFTLTISRLEPEDFAVYYCQQGQVIPPTFGQGTKVEIK
heavy 2: DVQLVESGGGLVQPGRSLKLSCAASGFIFSYFDMAWVRQAPTKGLEWVASISPSGDIPYYRDSVKGRFTVSRENAKSSLYLQMDSLRSEDTATYYCARRSYGGYSELDYWGQGVMVTVSSAKTTPPSVYPLAPGSAAQTNSMVTLGCLVKGYFPEPVTVTWNSGSLSSGVHTFPAVLQSDLYTLSSSVTVPSSTWPSQTVTCNVAHPASSTKVDKKIVPRDCGCKPCICTVPEVSSVFIFPPKPKDVLTITLTPKVTCVVVAISKDDPEVQFSWFVDDVEVHTAQTKPREEQINSTFRSVSELPIMHQDWLNGKEFKCRVNSAAFGAPIEKTISKTKGRPKAPQVYTIPPPKKQMAKDKVSLTCMITNFFPEDITVEWQWNGQPAENYKNTQPIMKTDGSYFVYSKLNVQKSNWEAGNTFTCSVLHEGLHNHHTEKSLSHSPGGGGGSGGGGSGGGGSGGGGSEVQLLESGGGLVQPGGSLRLSCAASGFTFSSHAMSWVRQAPGKGLEWVSAIWASGEQYYADSVKGRFTISRDNSKNTLYLQMNSLRAEDTAVYYCAKGWLGNFDYWGQGTLVTVSS
light: DIQMTQSPASLSASLEEIVTITCQASQDIGNWLAWYHQKPGKSPQLLIYGTSSLADGVPSRFSGSSSGSQYSLKISRLQVEDIGIYYCLQAYGAPWTFGGGTKLELKRADAAPTVSIFPPSSEQLTSGGASVVCFLNNFYPKDINVKWKIDGSERQNGVLNSWTDQDSKDSTYSMSSTLTLTKDEYERHNSYTCEATHKTSTSPIVKSFNRNEC
notes: Mouse IgG1 DAPG (D265A, P329G) with DDKK heterodimerisation; It has two anti-mouse-4-1BB Fabs (MU137-1) and one anti-FAP (28H1) VH/VL fused to the Fc C-termini; also called mouse surrogate muFAP-4-1BB; murine bispecific FAP-4-1BB antibody
